The subject of this data set is MS2 coat protein. In words: apparent KD of MS2 coat protein; designed switch direction (-1 OFF switch, 1 ON switch): -1; higher = weaker reporter binding. In short, it runs like this:
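For each design, the apparent KD is the median over clusters of curves fitted to normalised cluster fluorescence. Clusters held RNA switches with common flanks, transcribed on Illumina chips by stalled E. coli RNA polymerase. These were titrated with SNAP-549-labelled MS2 coat protein, doubling from 0.7 or 1.5 nM to 3 µM, without input, with 200 uM small-molecule ligand, or with an oligonucleotide input.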

Where [1] appears, read: Eterna round: R95, input ligand: FMN 200 uM.
[2] abbreviates: Eterna round: R95, input ligand: microRNA oligo, concentration not stated.
[3] abbreviates: Eterna round: R95, input ligand: none.
Setting [4] is: input ligand: microRNA oligo, concentration not stated.

With “CUGAGCAGACGGAGAUCCAACAUGAGGAUCACCCAUGUCUCAUAAGCUUUUUGUUCAUCUUAUUGUACCUUGGUGCU [JL ViennaUCT Edcesobi mod 4] (puzzle: Sensor v3, turn-off variant 1)”, the “apparent KD of MS2 coat protein” value stood at 149 nM under setting [1], 24.6 nM under setting [2] and 252 nM under setting [3].
On to “CUGAGCUGAGGAUAUACAUGAGGAUCACCCAUGUGGGCCUGCGAGGUUACUUGCACAUGUAGAAGGCAGUUCGG [Extended Mod of JL - ex3-3.35 Brourd mod] (puzzle: Exclusion 3)”, for which, under setting [2], the “apparent KD of MS2 coat protein” value was found to be 74.4 nM.
Consider “CUGAGGUAGCGGUCCUAUGACAUGAGGAUCACCCAUGUACCUUGCUUUGAGCUUUAAGCUCGUCUUAUGAUUCUCGG [Mat - Sensor v3 - turn-off var 1 - JL Mod - D44] (puzzle: Sensor v3, turn-off variant 1)”, for which the “apparent KD of MS2 coat protein” value by setting is: under setting [1], 504 nM; under setting [2], 625 nM; under setting [3], 861 nM.
Consider “CUGAUGUUAGGAUAUCAGGCGCCCGCCACUAGCAAGGCGCAUGAGAAGGGACAUGAGGAUCACCCAUGUAGUAA [Xexeonza] (puzzle: Exclusion 4)”, for which the “apparent KD of MS2 coat protein” value under setting [2] is 27.7 nM.
As to “CUGAUGUUAGGAUAUCAGGUCACGCGCGAAGGCGCGCGGCAUGAGAAGGAACAUGAGGAUCACCCAUGUGACGA [Reisquso] (Eterna round: R96, puzzle: Exclusion 4)”, the “apparent KD of MS2 coat protein” value reads like this: (input ligand: FMN 200 uM) 305 nM; under setting [4], 29.6 nM; (input ligand: none) 43.3 nM.
For “CUGCUCCGUGUAGGAUAUGCGCGCAACCAACGCGCAGAAGGACAUGAGGAUCACCCAUGUAUGUUAUUAUCACGUGAAGCGUCC [Design 30] (Eterna round: R96, puzzle: Exclusion NG 1)” the same measures were 56.7 nM, 19.9 nM and 18.2 nM.
Consider “CUGGAAAACGAGGAUAUGCACCGGCUCGCUGACGCAGAAGGCGACACAUGAGGAUCACCCAUGUCGGUACGCGA [salish99_ex6_r004_449] (Eterna round: R97, puzzle: Exclusion 6)”, for which the “apparent KD of MS2 coat protein” value runs as follows: (input ligand: FMN 200 uM) 17.2 nM; (input ligand: none) 18.8 nM.
On to “CUGGACCGAGGAUAUAUUAUGUGAAACAUGAGGAUCACCCAUGUAAUAUGAUGGAUGUAAAUAGAAGGCGGUCUAG [Mat - Exclusion 5 - JL mod - D28] (puzzle: Exclusion 5)”, for which the “apparent KD of MS2 coat protein” value under setting [1] was found to be 34.5 nM, the “apparent KD of MS2 coat protein” value under setting [2] worked out at 35.1 nM and the “apparent KD of MS2 coat protein” value under setting [3] was 47.3 nM.
As to “CUGGAGUCAGGAUAUGACGCAGUCCGCCCAAAGGGCGGAAAUCAGAAGGGACUUGAGGAUCACCCAAGUAAAAG [Gecear] (Eterna round: R97, puzzle: Exclusion 4)”, the “apparent KD of MS2 coat protein” value turned out to be 28.8 nM (input ligand: FMN 200 uM) and 31.4 nM (input ligand: none).
For “CUGGUCCGAGGAUAUAUUAUGUGAUACAUGAGGAUCACCCAUGUUAUAUGAUGGAAAUAAAUAGAAGGCGGACUAG [Mat - Exclusion 5 - JL mod - D67] (puzzle: Exclusion 5)”, the “apparent KD of MS2 coat protein” value by setting is: under setting [1], 79 nM; under setting [2], 70.5 nM; under setting [3], 69 nM.
The like results for “CUGGUCCGAGGAUAUAUUUUGUGAAACAUGAGGAUCACCCAUGUAAUAAAAUGGAUAUAAAUAGAAGGCGGACUAG [Mat - Exclusion 5 - JL mod - D41] (puzzle: Exclusion 5)” were, in that order, 25.1 nM, 21 nM and 18.1 nM.
For “CUGGUCCGAGGAUAUAUUUUGUGAUACAUGAGGAUCACCCAUGUAAUAAGAUGGAAGUAAAUAGAAGGCGGACUAG [Mat - Exclusion 5 - JL mod - D47] (puzzle: Exclusion 5)” the same measures were 69.3 nM, 125 nM and 150 nM.
On to “CUGGUCUAUGUAGGAUAUGGUGUAUAUGUAUUACCAGAAGGACAUGAGGAUCACCCAUGUGUCGUGGUAUGAGUAGGUGAUGUU [Random] (Eterna round: R96, puzzle: Exclusion NG 1)”, for which, under setting [4], the “apparent KD of MS2 coat protein” value amounted to 40.2 nM.
Take “CUGGUGUGAGGAUAUCAGGGCACGCCCAAGGGCGUACCAAAUGAGAAGGCACAUGAGGAUCACCCAUGUGGGAC [Lasoena] (puzzle: Exclusion 4)”: the “apparent KD of MS2 coat protein” value under setting [2] was 32 nM.
“CUGUACUGAGGAUAUACAUGAGGAUCACCCAUGUGAUUUAGUGCACGCGUACGUGUACGUAGAAGGCAGUACAG [Mat - Exclusion 3 - Eli Mod - D36] (Eterna round: R97, puzzle: Exclusion 3)”: the “apparent KD of MS2 coat protein” value runs as follows: (input ligand: FMN 200 uM) 183 nM; (input ligand: none) 25.2 nM.
The like results for “CUGUACUGAGGAUAUACAUGAGGAUCACCCAUGUGUACCAGCUAGGAAACUAGCAAAAGUAGAAGGCAGUACAG [Mat - Exclusion 3 - Eli Mod - D62] (Eterna round: R97, puzzle: Exclusion 3)” were, in that order, 27.6 nM and 13.3 nM.
The like results for “CUGUACUGAGGAUAUACAUGAGGAUCACCCAUGUUCUUCGGCUAGGAAACUAGCAAAGGUAGAAGGCAGUACAG [Mat - Exclusion 3 - Eli Mod - D68] (Eterna round: R97, puzzle: Exclusion 3)” were, in that order, 234 nM and 15.1 nM.
For “CUGUGAUGAGGAUAUACAUGAGGAUCACCCAUGUGUCCUCUGAUGGGUAGGGACCCUGGUAGAAGGCAUUGAGA [Eternabot (L1) Solution 52] (Eterna round: R97, puzzle: Exclusion 3)” the same measures were 19.2 nM and 15.5 nM.
As for “CUGUGCACGCUGCGGUCCUACAUGAGGAUCACCCAUGUGGUCUGGUGGCGUGGGUCACCGGACUUGGCUCGUCUUGC [salish99_S_TOV1_R5_062] (Eterna round: R97, puzzle: Sensor, turn-off variant 1)”, the “apparent KD of MS2 coat protein” value by setting is: (input ligand: FMN 200 uM) 22.9 nM; (input ligand: none) 22.5 nM.
For “CUGUGUAGACAGGAUAUGCUGUACAAAAGUACAGCAGAAGGGUCUACAUGAGGAUCACCCAUGUUUACUUCAUG [)mei Ex6 B23] (Eterna round: R97, puzzle: Exclusion 6)” the same measures were 20.4 nM and 98.4 nM.
On to “CUUAGACAUGAGGAUCACCCAUGUGAGGAUAUGAUGCAGCAGUGGUCUACGCUGUGCAUCAGAAGGCACAUAUG [mod of disincluded 3 v.3 (my top score 87 - 28% A's)] (puzzle: Exclusion 1)”, for which the “apparent KD of MS2 coat protein” value under setting [2] stood at 108 nM.
For the sequence “CUUAGACAUGAGGAUCACCCAUGUGAGGAUAUGAUGCGAAUGAAGAAAGAAGGAAGCAUCAGAAGGCACAUAUG [Mat - Mod of Hyphema D26] (puzzle: Exclusion 1)”, the “apparent KD of MS2 coat protein” value came out at 323 nM under setting [1], 163 nM under setting [2] and 143 nM under setting [3].
Regarding “CUUCGACAUGAGGAUCACCCAUGUCAGGAUAUUGUGUAUCGGGUUUUUUACGGAUAGGCAAGAAGGGAUGUGUG [LRO-Excl1-06] (puzzle: Exclusion 1)”, the “apparent KD of MS2 coat protein” value under setting [2] worked out at 32.7 nM.

For the origin of these results see the supplement of paper PMC9170038.
